{"source": "the DeepSol protein solubility set"}
{"test": "soluble on expression in E. coli; label from the status in PepcDB or PDB records"}
{"sequence": "MGSDKIHHHHHHMKIGILSQFPELYSTRRLVAACESRGHEAVVINTLNCYMNINSIKPSIHYQGQELTGFDAIIPRIHASVTFYGCAVVRQFEMMGVFAANDSISIARSRDKLRALQLLSRKGIGMPITGFANKPNDIPDLINMVGGAPLVIKLLEGTQGIGVVLAETKTAAESVIEAFLGLKANIMLQEYIKESNGSDIRCFVVGDKVVASMKRQGPEGDFRSNLHLGGCGEKVKITPKERKMAVAAVKAMGLVVAGVDILRSNRGPLILEVNSAPGIEGIEQTTGISVTEPIVEYIEKMVLAQKSNRPVIA", "soluble on expression in E. coli": "not soluble"}
{"sequence": "MGSDKIHHHHHHMKIGIVISGGDVSGMNNFIFQIARQANADITLFNGGIPGLLEKSHQDMAWRDLVDYSITAVPIITSGRTSRKLQRSEYESIAKKLKSLRIDVLIMAGGDGSLQFLNTLSEFEINCFGVGMTIDNDVYGSDYTIGFSTACEQIIKEVSRLRNTGRALPGRVFMVEILGGYCGELTLQSAIKCNADIALIPEAQMPLAVLAERITRKLSAQNSVVILCSEGYTKEYSPGFQGAIDTMIKQLEPQIGVRIRKTIVGYGLRSGDPTCEEIYQGTIMASEVVRCIQSGMKNKAIIINSSNKPIPIDLVSMKKRLVDTEGHHYKLAKQLNII", "soluble on expression in E. coli": "not soluble"}
{"sequence": "MGSDKIHHHHHHMKILITGATGFVGRNLVPYLFSHGFVELAIAVRDPQKAISMFESIPLTYISCERTFRQQIIDFAPEVVIHLATNFNFHSDEKSVRDIVDANILFGSLLLEAVSYTPCKFFINLGTFAEYYYNDGNFLPNTFYAATKTAFRSIIQYYQLKGDFKWINLIGYTIYGKKNDSKKIIDYLIDALNSPIPLNFTKGEQINDFIHINDVSDFFYVLLSNLNLLEDTMYTQLYLGTGKGTSIRELSYIIETVYKQKVNANWGGLSYRPYDIMYAVAPISRNLDLLKWKTKISLEEGIKMLRYE", "soluble on expression in E. coli": "not soluble"}
{"sequence": "MGSDKIHHHHHHMKILQIVPSISLIYGGPSQMVLGLAPALVKEGVEVTILTTDSNGDNGQTPLDVPLNRPIKQDGYEIIYFRCAPFRRYKFSLDLLKWLKRHAHEFDLAHIHALFSPIISAAAIVCRQQKLPYIFRPLGTLDPADLRKKKQLKQLYVAIIERQNLASAAAIHFTSEQEAKISERFGVSTPDLVIPLGVIPRQSSLKNVCSQLEIPKDVPLVLFMSRIDPKKGLNLLIPALEKLLAVGYKFHFVLAGTNPQDPDYEQKIISQIQNSPLRSHTTITGFVTGELKVSLLQAADLFVLPSYYENFGIAVAEAMVAGVPVVISDQVHICQQIRDSESGWVGATDVQALVELLQAALQNPAERQRRGLNAQKYALENFSWDAIARQTIQAYQKILANK", "soluble on expression in E. coli": "not soluble"}
{"sequence": "MGSDKIHHHHHHMKILVYGINYSPELTGIGKYTGEMVEWLAAQGHEVRVITAPPYYPQWQVGENYSAWRYKREEGAATVWRCPLYVPKQPSTLKRLLHLGSFAVSSFFPLMAQRRWKPDRIIGVVPTLFCAPGMRLLAKLSGARTVLHIQDYEVDAMLGLGLAGKGKGGKVAQLATAFERSGLHNVDNVSTISRSMMNKAIEKGVAAENVIFFPNWSEIARFQHVADADVDALRNQLDLPDNKKIILYSGNIGEKQGLENVIEAADRLRDEPLIFAIVGQGGGKARLEKMAQQRGLRNMQFFPLQSYDALPALLKMGDCHLVVQKRGAADAVLPSKLTNILAVGGNAVITAEAYTELGQLCETFPGIAVCVEPESVEALVAGIRQALLLPKHNTVAREYAERTLDKENVLRQFINDIRG", "soluble on expression in E. coli": "not soluble"}
{"sequence": "MGSDKIHHHHHHMKIQPLPPLNSLHAFESAARHLSFTLAAKELNVTQGAISRQVRLLEDYLGKALFTRTTRSMSLTPTGAQYYETVRECMLHLARATGDIRQWQGNQQVTVATSTAMASLWLLPKVSEFQSAHENIDLRIIAHDHVKDYARLDSDLALYYCNPPPKDMAVTPLFSEEIFLVCSPAYLARHPQLSSIEGLSSCTWLWLEDSQRDWVGWPEWFKRLGYEPMTPKHRVNINSYGMLIQSAISGQGVALAWGNLVDDALSTGALVKPNDVVLQTDAKFCLLESSTERGPRESVRLFRDWLMALPSVQK", "soluble on expression in E. coli": "not soluble"}
{"sequence": "MGSDKIHHHHHHMKIRYGIIGVGGHGKNRHLIPLIKLKNKVEIVAVADVKKERCEEVSSQFNIKCYLDYMEMVEKESLNAVSIVTPTGLHSRIAINVLNKGVNVLVDKPLGSNLEEVKEVVNTARNKGLKLMVGYWSRFSPALQYGKEIIHNGLLGEPYVAYGYLVRRRGIPGIPTFIDKTLSGGRGALLDIGCYLIDNLLSLLKFRKPISVMGKVYTKFGNVKEEVKFNWGSWDPENFSLDDYAVGLVKLEGDVSLILEVGWSANVSHVEEKSYVRILGDKGGIEGSGHEAIVDISFHSRTENFLTDTKPVLRKVDPYFEMINAFVDSILTDREPPITGEESVTLHSIIDGIYKSSTEDKEVKISL", "soluble on expression in E. coli": "not soluble"}
{"sequence": "MGSDKIHHHHHHMKITFGQQTTKVKQLADKISFDISMGVYKSGDSLPSINQLSQAYEVSRDTVFKAFLDLKERGIIDSTPGKGYYVVGRLKNVLLLLDEYSPFKYALYNSFVKRLSIRYKVDLLFHQYNERLFNTIIRESLGRYNKYIVMNFDNEKLSPNLYKINPSKLLLLDFGKFEKEGFSYVCQDFDQGFYNALFQLADRLRKYQKLVFVLVDDSMHPRSSRDFFERFCADQHLGCEVVSDIEGLQVRRGEVYIAIRQIDVVSIIKKSRVEGLQCGVDFGLIGYNDTPAYEVIDQGITALSVDWEKMGDKAAEFVLQGKTIQDYLPTEVRLRASL", "soluble on expression in E. coli": "not soluble"}
{"sequence": "MGSDKIHHHHHHMKITLNSVSFRYNGDYVLKDVNAEFETGKIYVVVGKNGSGKTTLLKILAGLLEAEGEIFLDGSPADPFLLRKNVGYVFQNPSSQIIGATVEEDVAFSLEIMGLDESEMRKRIKKVLELVGLSGLEKEDPLNLSGGQKQRLAIASMLARDTRFLALDEPVSMLDPPSQREIFQVLESLKNEGKGIILVTHELEYLDDMDFILHISNGTIDFCGSWEEFVEREFDDVEIPFKWKLWKKCGKINLWEDRYENSGNQRRRDTV", "soluble on expression in E. coli": "not soluble"}
{"sequence": "MGSDKIHHHHHHMKITVLYSGNYGERVLNTILEKFAQNIVSIHEIPENLPEYIDDVSEYVPENLKESDLIISVGLFGDINLIVCDIAKKTNAKSIIIESHSPKQVTKGLKSEISDSLNEIKIVFPKPFCSLKPVGDTYIDEFAKYFGSPEIEIIGETIVKSVIVKRNAPCGSTKYVAENLTGYSLNEVEFESGNKLHNYPCLASMDVDNEIGDTILHLAGYKIKEAVKKSLKFSNKILTVTGDCKGFECGFKCYKICPVVKMGENAVEIEKTHVNINNLFCGCCMKCVDICPFNAIKVLNYKI", "soluble on expression in E. coli": "not soluble"}
{"sequence": "MGSDKIHHHHHHMKIVFMGTPEFAAAHLKEIVESGNKVAGVFSQPDRPKGRGQKVEPTPVKTVATNYGIPVFQPEKINSDEGFEKLSELSPDIIVVVAFGKLLKSGVINLPTIGCFNVHASLLPKYRGAAPIQRAIENGETKTGITIFKIDEGMDTGAIALKRELEIHPSDSFGSLYLKLAELGKKTLVHFLERVKEGRLELAPQDGIPSFAPKIQPEDLVISDLSDAAKVVNKIRAYDPQPGARVSVEGRISKVFGASLKCRNEGKGIVGEIVKIDDRGMIVSCGAENVIISLVQFPGKKPMRPKDALSGRLISEGIILGG", "soluble on expression in E. coli": "not soluble"}
{"sequence": "MGSDKIHHHHHHMKIVHTADWHLGKILNGKQLLEDQKYILTQFKQHMEKEQPDLIVIAGDLYDTSYPSKEAIGLLEETIEYLNIELKIPIIMISGNHDGRERLNYGSKWFENNQLYIRTQLENIDDPIELSGVQFFTLPFATVSEVQNYFKDKQIETYQQALNECLEQMSSSIDNNKVNILIGHLTIEGGKTSDSERPLTIGTVESVDMHSFRLFDYVMLGHLHHPFSINNSFIKYSGSILQYSFSEVNQSKGYRVLDIENNQLLNETFVPLKPLRELEVIEGDYEDIIQERIKVKNKNNYFHFKLTNVSHITDPMMKLKQIYPNILALSNVVFDHSENFSHVEIKKQDDQTIIENFYKNMTDQHLSQVQSDKIKHLLSFILDREG", "soluble on expression in E. coli": "not soluble"}
{"sequence": "MGSDKIHHHHHHMKIVKNFRDINTLIPGWGDKMSEVSIFDIWKGTKFGESVLMEFDSLSFSPLGVYSLAYWARMKGFKVSVVDVLDTLKIYLSYAKMIGLGTSIANDIEVIKLGGRIDSGNVSTRIPITEEKVMEKELMKLYPHEDNEKTIVIVLGIEKFLALWCKLLPDILSFLNFMLSFVGEEWMKSFYFINVDLMKDFSFPALSMLEELSTTVVEISKRGPVLHYIVRKALNPEIDSLEGEIHIKELISEIENPIES", "soluble on expression in E. coli": "not soluble"}
{"sequence": "MGSDKIHHHHHHMKKAMVIINPTSGGEKALDYKEKLENKAKEYFEYVETKITEKALDATHFAEEASREQYDAVVVFGGDGTVNEVISGIDERDYIPKLGIIPGGTGNLITKLLEINQDIDGAIDELDFDLTNKIDIGKANDNYFGYIFSIGSLPEAIHNVEIEDKTKFGILTYAVNTMKSVMTDQVFNIKVETENGNYVGEASHVLVLLTNYFADKKIFEENKDGYANILILKDASIFSKLSVIPDLLKGDVVANDNIEYIKARNIKISSDSELESDVDGDKSDNLPVEIKVLAQRVEVFSKPKED", "soluble on expression in E. coli": "not soluble"}
{"sequence": "MGSDKIHHHHHHMKKHKIGIYEKALPKNITWQERLSLAKACGFEFIEMSIDESNDRLSRLNWTKSERIALHQSIIQSGITIPSMCLSAHRRFPFGSKDKKIRQKSFEIMEKAIDLSVNLGIRTIQLAGYDVYYEKQDEETIKYFQEGIEFAVTLAASAQVTLAVEIMDTPFMSSISRWKKWDTIINSPWFTVYPDIGNLSAWNNNIEEELTLGIDKISAIHLKDTYPVTETSKGQFRDVPFGQGCVDFVHFFSLLKKLNYRGAFLIEMWTEKNEEPLLEIIQARKWIVQQMEKAGLLC", "soluble on expression in E. coli": "not soluble"}
{"sequence": "MGSDKIHHHHHHMKKKYVTIRDIAEKAGVSINTVSRALNNKPDISEETRRKILKIAQELGYVKNATASSLRSKQTNIVGVIIADSANPFYAEVLKGIEAASRKYGYQIMLMNTERIYENEEKAIEVLLQRRVDGLLITPVQDRSDDIKTLIERKVPFVIVGRHFEELEVDEIHSDEVKGGYLATRHLIERGRKNIIMISGYLFKSAAYMRLEGYRKALKEYGIPFSEKMIIETDIDIESGYRAMREAIEKGLEFEAVFCYNDLLAFGVIKALKECGYRIPEDVAVVGYDDIVYSSFICPSLTTVRIKKFEMGFEAFRMLLQRLKGRRKKRKRVILDVELVVRESG", "soluble on expression in E. coli": "not soluble"}
{"sequence": "MGSDKIHHHHHHMKLPIKKAVEALLKLQTTGDSATLIGVGPMSRNLLQASFELAKEDDYPLMFIASRNQVDADELGGGYVNGWNQFSFIDAIKEVAKEVDFDGLYYVCRDHGGPWQRDQERNDHLPTEKAMELGKKSYIADIEAGFDLLMIDPTKDPFEVGKVIPLETVLERTVDLIAFCEEERKKRGLPEIGYEVGTEETNGGLTSTETYEKFITQLKVELEKRDLPLPTFIVGQTGTLTRKTEQVGHFNFKNAYDLAQMAKKYGVGLKEHNGDYLDDVTLLEHIPSEITATNVAPQYGTEETRAYLKLVELEQKLVENGLIKTPSNAREVLLIQSIKSERWRKWMLDGQKDITINEIMQDDDLSLEILDIAGHYTFNDAMVKKEINTLYANLAANNIDGKRFVIDHIKRPIRNYSECYNLKGATTRIKQLAK", "soluble on expression in E. coli": "not soluble"}
{"sequence": "MGSDKIHHHHHHMKLRKQLAQQIVTSIKDVCQQDINFINTKGIIFASTNPKRVGEFHEIGLKVAQTGQMIEVTDQESYFGTQAGINIPFYYNCELLATIGISGNPNQVGKYALLAQKMTRLILKEHELDYLDFGRKNEASIVLHHLVEGRELDYYYLNQFLNQYHLSEKTDYRLLTFEINSQKQKLLLSQSEMSLLNFFDKLDTAIYTFNYPNQYWLLLSDHMFDYYYPNILSKFECEKGLYKVGIGQKSSLSLLKRSYETSILALKALKGQQKVNLVDDLDLELLLTSIDSNIKQYVLNKALVNLSENDKILLNSYFKHNLSLKECSQELFIHKNTVQYRLNKIYESTQLNPRNFKDATLLYLALKSEDINLHKL", "soluble on expression in E. coli": "not soluble"}
